Paper doi:10.1101/2021.10.15.464611

Biological target: anti-PfTRAP monoclonal antibody AKBR-7 (mouse)
Assay: BLI

B1: Plasmodium falciparum TRAP ectodomain (PfTRAP) (domain or fragment)
chain: RDVQNNIVDEIKYSEEVCNDQVDLYLLMDCSGSIRRHNWVNHAVPLAMKLIQQLNLNDNAIHLYVNVFSNNAKEIIRLHSDASKNKEKALIIIRSLLSTNLPYGRTNLTDALLQVRKHLNDRINRENANQLVVILTDGIPDSIQDSLKESRKLSDRGVKIAVFGIGQGINVAFNRFLVGCHPSDGKCNLYADSAWENVKNVIGPFMKAVCVEVEKTASCGVWDEWSPCSVTCGKGTRSRKREILHEGCTSEIQEQCEEERCPPKWEPLDVPDEPEDDQPRPRGDNSSVQKPEENIIDNNPQEPSPNPEEGKDENPNGFDLDENPENPPNPDIPEQKPNIPEDSEKEVPSDVPKNPEDDREENFDIPKKPENKHDNQNNLPNDKSDRNIPYSPLPPKVLDNERKQSDPQSQDNNGNRHVPNSEDRETRPHGRNNENRSYNRKYNDTPKHPEREEHEKPDNNKKKGESDNKYK
Kd: 0.15 nM
